Where two headings read alike, the source gives them in different places. Numbered stars: 1 amine (or outer) side, 2 acyl side, 3 side chain; on linkers, the order of the positions; unused ones are H or OH. Bridge positions count the residues as written; N and C are the ends. Square brackets hold non-standard residues; d marks the D form. Triazole bridges read from a SMILES are 1,4-linked. Peptide text beside a SMILES is read from it. * marks the point of attachment. DOTA = O=C(O)CN1CCN(CC(=O)O)CCN(CC(=O)*)CCN(CC(=O)O)CC1; Pteroyl = Nc1nc2ncc(CNc3ccc(C(=O)*)cc3)nc2c(=O)[nH]1; Biotin = O=C1N[C@H]2[C@H](CS[C@H]2CCCCC(=O)*)N1; Butanoyl(4-(4-I-phenyl)) = O=C(CCCc1ccc(I)cc1)*; Butanoyl(4-(4-MePh)) = Cc1ccc(CCCC(=O)*)cc1; Lys(N3) = [N-]=[N+]=NCCCC[C@H](N)C(=O)O; γGlu = O=C(O)[C@H](CCC(=O)[*:2])N[*:1]; AEEEA = NCCOCCOCCOCC(=O)O; Pra = C#CC[C@H](N)C(=O)O

As a reminder, the EC50 is the concentration needed to bring the measured effect to its halfway point. One may read the half-life as the time in which the quantity being followed falls by half. A lower half-life goes with fast loss. The term fraction unbound denotes the share of the substance not bound to proteins or other matrix. A higher fraction unbound goes with much free substance.

The target of one series is T1, FOLR1 (Homo sapiens, UniProt P15328).
T1 construct: His; purchased SinoBiological 11241-H08H
T1 sequence (P15328 25-234): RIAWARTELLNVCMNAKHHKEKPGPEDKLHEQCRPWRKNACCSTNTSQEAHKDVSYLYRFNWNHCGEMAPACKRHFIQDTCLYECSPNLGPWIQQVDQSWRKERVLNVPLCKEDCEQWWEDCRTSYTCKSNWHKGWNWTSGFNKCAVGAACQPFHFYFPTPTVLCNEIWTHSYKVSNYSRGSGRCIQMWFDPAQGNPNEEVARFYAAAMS
Description: ELISA assay of FOLR1 binding. The source says:
FIG. 5 is a diagram of ELISA assay of FOLR1 binding of heterobiligands.
Nonclinical studies were first conducted with Folate-hshta-PEG10-PEG10-K(Biotin), where Folate-hshta is the targeting heterobiligand, PEG10 is a deca(ethylene glycol) linker, and K(Biotin) is the detection label.
A general note: In an ELISA, binding on a coated surface is turned into a signal by an enzyme label.

The target in series [1] is mouse recombinant FOLR1 (rMuFOLR1) (Mus musculus, UniProt P35846). Description: ELISA binding to mouse recombinant FOLR1. The source says: Further evaluation of the folate-hshta (SEQ ID NO:6) Nterm heterobiligand depended on cross reactivity with mouse recombinant FOLR1 (rMuFOLR1). The heterobiligand binds to both species' variants of FOLR1 with high affinity. This observation was expected given the high homology between the two variants (approximately 92%).
Sequence of mouse recombinant FOLR1 (rMuFOLR1) (P35846 25-232): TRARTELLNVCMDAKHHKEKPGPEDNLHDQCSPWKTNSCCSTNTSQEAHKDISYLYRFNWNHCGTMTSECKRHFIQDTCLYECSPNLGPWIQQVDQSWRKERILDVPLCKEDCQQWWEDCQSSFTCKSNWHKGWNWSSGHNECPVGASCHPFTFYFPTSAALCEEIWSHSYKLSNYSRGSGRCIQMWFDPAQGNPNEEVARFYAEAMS

The next series has as its target human recombinant NEP (Homo sapiens, UniProt P08473). The class given is biochemical. In a few lines:
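Peptide bearing GFK linker (10 μM) incubated with recombinant human NEP (10, 1, 0.1, 0.01 nM or none) at 37° C. for 1 h. Cleavage tracked by MALDI-MS, cleaved adduct identified by mass, and by HPLC as parent-peak depletion with new-peak appearance; non-cleavable PEG3 linker assayed for specificity.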

Another series has as its system mouse plasma proteins. Description: Plasma protein binding (equilibrium dialysis), mouse. The class given is in vitro ADME, CD-1 mouse. The note with it: mouse, plasma. In a few lines:
(§1)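 Equilibrium dialysis across 12-14 kDa cellulose membranes; test articles at 2 μM in mouse or human plasma adjusted to pH 7.0-8.0, in triplicate. Dialysed 4 hours at 37° C. with slow shaking; both sides quantified by LC-MS/MS to give fraction bound.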
A general note: Equilibrium dialysis compares concentrations on both sides of a semipermeable membrane.

Assay in series [2]: as above
The class given is in vitro ADME, CD-1 mouse. In a few lines:
as §1

The next series concerns human plasma proteins. In words: Plasma protein binding (equilibrium dialysis), human. The class given is in vitro ADME. The note with it: human, plasma. In outline:
as §1

Assay in series [3]: as above
The class given is in vitro ADME. In outline: as §1

The conditions of series [4]: mouse, plasma, Plasma Stability (t 1/2).
Description: (§2) Plasma was thawed in a 37° C. water bath. Residual clots were removed via centrifugation at 4000 rpm for 5 minutes. The pH of the plasma was adjusted to 7.4 if required. Test articles were diluted to 100 μM by diluting a 1 mM working solution (in DMSO) with 45% methanol in water. To 98 μL of plasma was added 2 μL of the 100 μM solution, resulting in 2 μM final concentration of the test article. Samples were incubated at 37° C. in a water bath. At the indicated time points (0, 10, 30, 60, 120 minutes) 100 μL of 4% H3PO4 was added followed by 800 μL of stop solution (200 ng/mL tolbutamide and 200 ng/mL labetalol in 100% acetonitrile). The samples were centrifuged and the plasma protein-free supernatant (100 μL) was subjected to LC-MS/MS analysis.
For series [5] the following is noted: human, plasma, Plasma Stability (t 1/2).
Description: as §2

Sequence of human recombinant NEP (P08473 whole entry): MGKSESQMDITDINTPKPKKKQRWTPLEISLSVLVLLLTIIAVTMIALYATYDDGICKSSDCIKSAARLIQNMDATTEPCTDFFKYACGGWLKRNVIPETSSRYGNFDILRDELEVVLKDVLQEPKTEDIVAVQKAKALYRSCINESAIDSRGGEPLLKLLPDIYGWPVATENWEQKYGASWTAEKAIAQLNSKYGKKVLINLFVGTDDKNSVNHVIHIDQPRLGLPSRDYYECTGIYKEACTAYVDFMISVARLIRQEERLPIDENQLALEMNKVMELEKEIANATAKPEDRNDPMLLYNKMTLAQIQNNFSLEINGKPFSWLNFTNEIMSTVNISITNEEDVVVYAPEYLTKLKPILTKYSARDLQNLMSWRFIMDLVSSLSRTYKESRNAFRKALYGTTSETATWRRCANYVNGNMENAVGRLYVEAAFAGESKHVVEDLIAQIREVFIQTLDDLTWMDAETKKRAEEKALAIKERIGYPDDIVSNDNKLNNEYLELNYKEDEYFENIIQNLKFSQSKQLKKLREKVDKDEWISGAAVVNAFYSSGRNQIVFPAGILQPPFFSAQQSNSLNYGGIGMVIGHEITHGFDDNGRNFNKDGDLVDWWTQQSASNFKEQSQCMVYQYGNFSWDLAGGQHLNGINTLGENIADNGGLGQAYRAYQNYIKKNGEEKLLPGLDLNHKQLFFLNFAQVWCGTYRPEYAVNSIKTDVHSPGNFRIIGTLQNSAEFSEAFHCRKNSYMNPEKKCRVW

`C[C@H](O)[C@H]1NC(=O)[C@@H](Cc2c[nH]cn2)NC(=O)[C@@H](CO)NC(=O)[C@@H](Cc2c[nH]cn2)NC(=O)[C@@H](NC(=O)COCCOCCOCCNC(=O)CCCC[C@@H]2SC[C@@H]3NC(=O)N[C@@H]32)Cc2cn(nn2)CCCC[C@@H](C(N)=O)NC(=O)[C@@H](C)NC1=O` [hshta] ({Biotin-AEEEA}-[Pra][dH][dS][dH][dT][dA][Lys(N3)]-NH2; triazole 1-7): the EC50 was 3.4 µM at FOLR1 (Human FOLR1, read-out: Ec50); 3.92 µM at FOLR1 (read-out: EC50 (ELISA, FOLR1)); 2.1 µM in [1].

As for `C[C@H](O)[C@H]1NC(=O)[C@@H](Cc2c[nH]cn2)NC(=O)[C@@H](CO)NC(=O)[C@@H](Cc2c[nH]cn2)NC(=O)[C@@H](NC(=O)CC[C@H](NC(=O)c2ccc(NCc3cnc4nc(N)[nH]c(=O)c4n3)cc2)C(=O)O)Cc2cn(nn2)CCCC[C@@H](C(=O)N[C@@H](CCCCNC(=O)CCCc2ccc(I)cc2)C(=O)NCC(=O)N[C@@H](Cc2ccccc2)C(=O)N[C@@H](CCCCNC(=O)CN2CCN(CC(=O)O)CCN(CC(=O)O)CCN(CC(=O)O)CC2)C(=O)O)NC(=O)[C@@H](C)NC1=O` [compound #1307, Fol-hshta-Lys(4-IPBA)-Gly-Phe-Lys(DOTA)] ({Pteroyl-γGlu}-[Pra][dH][dS][dH][dT][dA][Lys(N3)]K(Butanoyl(4-(4-I-phenyl)))GFK(DOTA)-OH; triazole 1-7), the “in vitro Assay Data (NEP assay)” value with human recombinant NEP is given as “Cleavage of -G-F-K-”. In addition, the “Plasma % Bound” value was “Mu: 99.60%” in the series on mouse plasma proteins and “Hu: 99.50%” with human plasma proteins. For the same molecule, the recovery was 87.7% in [2] and 84.4% in series [3].

Turning to `Cc1ccc(CCCC(=O)NCCCC[C@H](NC(=O)COCCOCCOCCNC(=O)[C@@H]2CCCCn3cc(nn3)C[C@H](NC(=O)CC[C@H](NC(=O)c3ccc(NCc4cnc5nc(N)[nH]c(=O)c5n4)cc3)C(=O)O)C(=O)N[C@H](Cc3c[nH]cn3)C(=O)N[C@H](CO)C(=O)N[C@H](Cc3c[nH]cn3)C(=O)N[C@H]([C@H](C)O)C(=O)N[C@H](C)C(=O)N2)C(=O)N[C@@H](CCCCNC(=O)CN2CCN(CC(=O)O)CCN(CC(=O)O)CCN(CC(=O)O)CC2)C(N)=O)cc1` [compound #2809, Fol-hshta-PEG3-Lys(4-MPBA)-Lys(DOTA)] ({Pteroyl-γGlu}-[Pra][dH][dS][dH][dT][dA][Lys(N3)][AEEEA]K(Butanoyl(4-(4-MePh)))K(DOTA)-NH2; triazole 1-7), the half-life in [4] and in series [5] was greater than 4.82 h each time. The “NEP-mediated cleavage (site / susceptibility)” value in the series with human recombinant NEP was “unchanged”. In addition, in the series with human recombinant NEP, the “in vitro Assay Data (NEP assay)” value is listed as “resistant to NEP”. In addition, the values for the recovery in [2] and in series [3] were 108% and 85.8%, respectively. The fraction unbound is 0.0791 in [2] (mouse, plasma) and 0.167 in series [3] (human, plasma).

The record behind these values is patent US11733246B2, “Compositions, imaging, and therapeutic methods targeting folate receptor 1 (FOLR1)” (Indi Molecular, Inc., priority 2020, dated 2023).
